Patent US20090291088A1, “THERAPEUTIC COMBINATIONS OF ANTI-IGF-1R ANTIBODIES AND OTHER COMPOUNDS” (Biogen Idec MA Inc., priority 2008, published 2009)

Assays:
Type in all cases: binding
[1] = target: T1, recombinant human IGF-1R-10His (Homo sapiens, UniProt P08069); test: SPR, antibodies and Fabs on IGF-1R-His captured via PENTA-His antibody; details: full-length antibodies, 64 nM to 0.5 nM
T1 construct: denoted hIGF-1R(1-902)-His10, was purchased from R&D systems (Cat. No. 305-GR-050); purchased R&D Systems 305-GR-050

human INSR(28-956)-His10 = target: T2, human INSR(28-956)-His10 (Homo sapiens, UniProt P06213); test: SPR, receptor ectodomain injected over immobilized antibodies: INSR; details: full-length fully human antibodies; up to 2 μM receptor
T2 construct: human INSR(28-956)-His10 (INSR (R&D systems)); purchased R & D Systems 1544-IR
Description: (§1) SPR analyses were performed using a Biacore3000. The instrument was set to 25° C. and assays performed with running buffer HBS-EP pH 7.2 purchased from Biacore (Biacore, Cat. No. BR-1001-88). The fully human antibodies, M13-C06, M14-C03, and M14-G11 were immobilized to ˜10,000 RU on Biacore CM5 Research Grade Sensor Chip surfaces using the standard NHS/EDC-amine reactive chemistry according to protocols supplied by Biacore. For immobilization, the antibodies were diluted to 40 μg/mL in a 10 mM Acetate pH 4.0 buffer. To investigate the relative kinetics of association and dissociation of the full-length ectodomains of human IGF-1R(1-902)-His10 (hIGF-1R-His10 (R&D systems)) and human INSR(28-956)-His10 (INSR (R&D systems)) to each of the human antibodies, increasing concentrations of hIGF-1R-His10 or INSR were injected over the sensorchip surfaces. The hIGF-1R-His10 concentration series ranged from 1.0 nM to 250 nM while the INSR concentrations ranged from 1.0 nM to 2 μM. All antibody surfaces were reliably regenerated with 100 mM Glycine, pH 2.0. […] Flow rates were 20 μl/min. (“His10” denotes a 10-residue histidine tag on the C-terminus of the constructs.)

[2] = target: T3, human IGF-1R(1-902)-His10 (Homo sapiens, UniProt P08069); test: SPR, receptor ectodomain injected over immobilized antibodies: hIGF-1R-His10; details: full-length fully human antibodies; even at the lowest concentration
T3 construct: human IGF-1R(1-902)-His10 (hIGF-1R-His10 (R&D systems)); purchased R&D systems 305-GR-050
Description: as §1

hIGF-1R-Fc = target: T4, hIGF-1R-Fc (Homo sapiens, UniProt P08069); test: IGF-1 and IGF-2 blocking ELISA-based competition assay
T4 construct: (3) human IGF-1R(1-903)-Fc (hIGF-1R-Fc, Biogen Idec); host or cells: CHO
Description: hIGF-1R-Fc was biotinylated using EZ-Link Sulfo-NHS-LC-Biotin according to the protocol provided by the manufacturer (Pierce Cat. No. 21335). Biotinylated human IGF-1R-Fc at 5 μg/ml was added to the wells of SigmaScreen streptavidin-coated 96-well plates (Sigma, Cat. No. M5432-5EA; Sigma-Aldrich Corp. (St. Louis, Mo., USA)) at 100 μL/well and incubated overnight at 2-8° C. The plates were then washed four times with 200 μL/well PBST. […] Dilutions were made from 1.3 μM to 10 pM for M13-C06 and M14-C03, from 5.2 μM to […] for M14-G11, and from 2.6 μM to 10 pM for both P1E2 and αIR3. Human IGF-2 His was prepared at 320 nM in PBST, 1.0 mg/ml BSA. The antibodies were serial diluted (from […] to 5 pM for M13-C06 and M14-C03, from 5.2 μM to 5 pM for M14-G11 and αIR3, and from 5.2 μM to 20 pM for P1E2) using a solution of 320 nM IGF-2 His. The dilutions were added to the plates in duplicate at 100 μL/well and the plates were incubated at RT for 1 hour. The plates were then washed four times with 200 μL/well PBST. An HRP-conjugated anti-Histag antibody (Penta-His HRP Conjugate, QIAGEN, Cat. No. 1014992) was diluted 1:1000 in PBST and added to plates at 100 μL/well, and the plates were incubated at RT for one hour. […] The absorbance of each well was determined at 450 nm, and the results were normalized and plotted against the log of antibody concentration.

B1: M14-C03: anti-IGF-1R antibody, allosteric blocker of IGF-1 and IGF-2 (antibody, V domains shown)
VH: EVQLLESGGGLVQPGGSLRLSCAASGFTFSKYMMSWVRQAPGKGLEWVSYISPSGGLTWYADSVKGRFTISRDNSKNTLYLQMNSLRAEDTAVYYCARDGARGYGMDVWGQGTTVTVSS
VL: DIQMTQSPATLSLSPGERATLSCRASQSVSSYLAWYQQKPGQAPRLLIYDASNRATGIPARFSGSGSGTDFTLTISSLEPEDFAVYYCQQRSNWPPEVTFGPGTKVDIK
modifications: Antibody variable heavy chain sequence; Antibody variable light chain sequence
Question: For B1, which “binding to immobilized recombinant human IGF-1R (SPR)” value [1] is on record?
Answer: strong binding

Question: And the “binding of INSR to immobilized antibody surface” value (human INSR(28-956)-His10)?
Answer: little binding activity

Question: What about the “binding of hIGF-1R-His10 to immobilized antibody surface” value [2] of the same molecule?
Answer: demonstrated binding

Question: And the “blocking of IGF-1 binding to IGF-1R” value (hIGF-1R-Fc; 320 nM IGF-1 His)?
Answer: block both IGF-1 and IGF-2 binding to IGF-1R

Question: What about the “blocking of IGF-2 binding to IGF-1R” value (hIGF-1R-Fc; 320 nM IGF-2 His) of the same molecule?
Answer: block both IGF-1 and IGF-2 binding to IGF-1R
